{
  "source": "patent US20080161234A1",
  "about": "“Composition Comprising Lactic Acid and Lactoferrin” (priority 2004, published 2008)",
  "molecules": {"B1": {"name": "rHLF: Recombinant human LF obtained from Agennix (protein, UniProt P02788 20-710, looked up)", "Lactotransferrin": "GRRRSVQWCAVSQPEATKCFQWQRNMRKVRGPPVSCIKRDSPIQCIQAIAENRADAVTLDGGFIYEAGLAPYKLRPVAAEVYGTERQPRTHYYAVAVVKKGGSFQLNELQGLKSCHTGLRRTAGWNVPIGTLRPFLNWTGPPEPIEAAVARFFSASCVPGADKGQFPNLCRLCAGTGENKCAFSSQEPYFSYSGAFKCLRDGAGDVAFIRESTVFEDLSDEAERDEYELLCPDNTRKPVDKFKDCHLARVPSHAVVARSVNGKEDAIWNLLRQAQEKFGKDKSPKFQLFGSPSGQKDLLFKDSAIGFSRVPPRIDSGLYLGSGYFTAIQNLRKSEEEVAARRARVVWCAVGEQELRKCNQWSGLSEGSVTCSSASTTEDCIALVLKGEADAMSLDGGYVYTAGKCGLVPVLAENYKSQQSSDPDPNCVDRPVEGYLAVAVVRRSDTSLTWNSVKGKKSCHTAVDRTAGWNIPMGLLFNQTGSCKFDEYFSQSCAPGSDPRSNLCALCIGDEQGENKCVPNSNERYYGYTGAFRCLAENAGDVAFVKDVTVLQNTDGNNNEAWAKDLKLADFALLCLDGKRKPVTEARSCHLAMAPNHAVVSRMDKVERLKQVLLHQQAKFGRNGSDCPDKFCLFQSETKNLLFNDNTECLARLHGKTTYEKYLGPQYVAGITNLKKCSTSPLLEACEFLRK"}},
  "assay_type_in_all_cases": "cell-based",
  "key": {"E. coli 06": {"tested_on": "E. coli 06", "experiment": "Microbicidal microplate-droplet assay, E. coli", "details": "1 mg/ml, lactate 0.2% and lactate free solution, 2 h", "protocol": "(§1) The bacterial strains S. aureus 1800 (CCUG 1800), E. coli 06, and the yeast C. albicans (ATCC 64549) have been used in the microplate assay. All microorganisms were cultured in brain heart infusion medium (BHI) on a shaker over night at 37° C. A volume of the culture was transferred to a new tube with BHI and incubated for two more h on the shaker. The bacteria were harvested in the log phase, washed once and thereafter suspended in the broth used for the microplate assay. The suspension was adjusted spectrophotometrically and diluted to a concentration of approximately 4×10^6 cells per ml at 650 nm. Washed cells were suspended in 0.2% BP (pH 7.0) or BHI medium diluted 1/10 (0.34%, pH 6.7-6.9) (Difco, USA). The concentration of bacterial or fungal cells was spectrophotometrically adjusted. LF or peptide, serially diluted in BHIdil or BP by twofold steps (unless otherwise stated), were added in triplicate to the wells of a microtiterplate (200 ul per well). The bacterial or yeast cell solutions were added in 10 ul volumes to give a final concentration of approximately 2×10^5 cells per ml. The concentration of the stock solution was always checked by viable counts. The microplate was incubated at 37° C. in a humid chamber for 2 h unless otherwise stated. Five ul were taken from each well and added as a drop onto a blood agar plate and incubated over night at 37° C. In some experiments more thorough viable counts were performed and the killing was expressed as remaining colony forming units in relation to the inoculum. The lower limit for detection of microorganisms was 200 CFU/ml. The antimicrobial activity of human LF was analysed by the microbicidal assay described above. Different microbes such as C. albicans, E. coli and S. aureus were analysed with respect to their survival in lactate (not containing the inert gel base, which makes the gel unsuitable for the microbicidal assay) containing LF."}, "L. jensenii": {"tested_on": "L. jensenii", "experiment": "Survival of L. jensenii in lactate with LF", "details": "2 mg/ml, lactate 0.2%, 2 h", "protocol": "(§2) L. gasseri and L. jensenii were cultured on chocolate-agar plates for 24 h in 5% CO2/95% air. They were thereafter harvested and added to BHI (0.34%). After washing the bacterial solutions were adjusted spectrophotometrically and diluted to 8×10^6 bacteria/ml.\n(§3) Washed cells were suspended in 0.2% BP (pH 7.0) or BHI medium diluted 1/10 (0.34%, pH 6.7-6.9) (Difco, USA). The concentration of bacterial or fungal cells was spectrophotometrically adjusted. LF or peptide, serially diluted in BHIdil or BP by twofold steps (unless otherwise stated), were added in triplicate to the wells of a microtiterplate (200 ul per well). The bacterial or yeast cell solutions were added in 10 ul volumes to give a final concentration of approximately 2×10^5 cells per ml. The concentration of the stock solution was always checked by viable counts. The microplate was incubated at 37° C. in a humid chamber for 2 h unless otherwise stated. Five ul were taken from each well and added as a drop onto a blood agar plate and incubated over night at 37° C. In some experiments more thorough viable counts were performed and the killing was expressed as remaining colony forming units in relation to the inoculum. The lower limit for detection of microorganisms was 200 CFU/ml.\n(§4) L. gasseri survived better in the assay system than did L. jensenii. Undiluted lactate (5%) affected the survival of Lactobacillus."}, "C. albicans (ATCC 64549)": {"tested_on": "C. albicans (ATCC 64549)", "experiment": "Microbicidal microplate assay (viable counts), C. albicans", "protocol": "as §1, with “LF. […] LF was incubated together with various concentrations of lactate diluted in 0.2% bactopeptone and C. albicans for 2 h. Thereafter each solution was analysed for viable counts.” for “LF.”"}, "L. gasseri": {"tested_on": "L. gasseri", "experiment": "Survival of L. gasseri in lactate with LF", "details": "rHLF 2 mg/ml in lactate, 2 h of incubation", "protocol": "as §2, §3, §4"}},
  "note": "“Also recorded” adds a separate entry of the source.",
  "data": [
    {"molecule": "B1", "values": [
      {"measurement": "killing of E. coli, rHLF compared with LF", "setting": "E. coli 06", "result": "the most effective of the two LFs"},
      {"measurement": "resistance of L. jensenii to the antibacterial effect", "setting": "L. jensenii", "result": "more resistant"},
      {"measurement": "fungicidal effect on C. albicans, rHLF in comparison to LF", "setting": "C. albicans (ATCC 64549); lactate 0.2%, 2 and 20 h", "result": "the stronger effect of rHLF was observed only after a longer incubation time"},
      {"measurement": "fungicidal effect on C. albicans, rHLF in comparison to LF", "setting": "C. albicans (ATCC 64549); lactate 1%, higher LF concentrations", "result": "stronger effect"},
      {"measurement": "killing of the inoculate", "setting": "C. albicans (ATCC 64549); rHLF 0.5-1.0 mg/ml, lactate 1%, 2 h", "result": "~99", "unit": "%"},
      {"measurement": "effect on L. gasseri survival beyond that of lactate", "setting": "L. gasseri", "result": "no additional effects; also recorded: survived equally well"}
    ]}
  ]
}
